Data as given in article PMC2739136.

Legend:
MBP-TraR S160A, P33905 = target: T1, MBP-TraR S160A, P33905; assay: pull-down
T1 chain: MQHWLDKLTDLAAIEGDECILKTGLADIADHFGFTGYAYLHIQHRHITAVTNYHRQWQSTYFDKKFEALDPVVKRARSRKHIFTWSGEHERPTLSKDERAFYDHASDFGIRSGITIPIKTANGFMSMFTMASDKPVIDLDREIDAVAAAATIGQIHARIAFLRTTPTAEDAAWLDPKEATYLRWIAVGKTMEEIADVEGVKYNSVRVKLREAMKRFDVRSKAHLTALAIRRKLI

MBP-TraR F161A, P33905 = target: T2, MBP-TraR F161A, P33905; assay: pull-down
T2 chain: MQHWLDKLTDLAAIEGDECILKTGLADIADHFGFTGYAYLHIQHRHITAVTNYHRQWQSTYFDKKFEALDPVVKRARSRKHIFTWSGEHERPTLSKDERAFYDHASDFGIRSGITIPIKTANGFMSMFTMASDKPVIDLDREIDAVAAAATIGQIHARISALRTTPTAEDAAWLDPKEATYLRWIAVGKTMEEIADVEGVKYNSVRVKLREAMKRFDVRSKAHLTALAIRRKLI

B1: native TraR (wild type) (protein)
chain: MQHWLDKLTDLAAIEGDECILKTGLADIADHFGFTGYAYLHIQHRHITAVTNYHRQWQSTYFDKKFEALDPVVKRARSRKHIFTWSGEHERPTLSKDERAFYDHASDFGIRSGITIPIKTANGFMSMFTMASDKPVIDLDREIDAVAAAATIGQIHARISFLRTTPTAEDAAWLDPKEATYLRWIAVGKTMEEIADVEGVKYNSVRVKLREAMKRFDVRSKAHLTALAIRRKLI
**Q.** How did the heterodimer formation (% of wild type) (% of wild type) (MBP-TraR S160A, P33905) turn out when B1 was run?
**A.** 100

**Q.** What about the heterodimer formation (% of wild type) (% of wild type) (MBP-TraR F161A, P33905) of the same protein?
**A.** 49
